Test results as given in patent publication US8298782B2, “Reversible MHC multimer staining for functional purification of antigen-specific T cells” (priority 2000, dated 2012).

System: LLO91-99-specific T cells
Experiment: epitope-tag (HSV) staining for surface-bound MHC / dissociation experiments by flow cytometry
Type: cell-based
Description: FIG. 5: Development of a reversible MHC multimer staining technology. (a) LLO91-99-specific T cells were stained for 30 min with monomeric or tetrameric (“tet”) LLO91-99/H2-K^d/β2m-HSV-tag or p60217-225/H2-K^d/β2m-HSV-tag reagents. Cells were fixed without washing (upper histogram) or after 2 washing steps (lower histogram) with 1% paraformaldehyde and subsequently stained for remaining HSV-epitope-tag on the cell surface (x-axis). (b+c) LLO91-99-specific T cells were stained for 45 min with LLO91-99/H2-K^dStrep-tag® II peptide/β2-HSV-tag:Strep:Tactin® polypeptide polymers (IBA GmbH) (“poly”), briefly washed to remove unbound reagents, and incubated in the presence (b) or absence (c) of 1 mM d-biotin; all steps were performed at 4° C. Cell aliquots were harvested after different time intervals (indicated above histograms), fixed with 1% paraformaldehyde, and stained for remaining HSV-epitope-tag on the cell surface (x-axis).
FIG. 6: Improvement of MHC-Strep-tag® II peptide/Strep-Tactin® polypeptide (IBA GmbH) multimer reagents. […]
FIG. 7: Reversible MHC multimer staining and T cell function. […] (a) Staining for recombinant MHC-molecules (detected by epitope-tag staining, x-axis) on differently treated T cells. […] Numbers of viable bacteria (y-axis) were determined 48 h following Lysteria infection. […]

B1: monomeric MHC/epitope molecules: monomeric LLO91-99/H2-K^d/β2m-HSV-tag reagent (protein)
MHC heavy: GPHSLRYFVTAVSRPGLGEPRFIAVGYVDDTQFVRFDSDADNPRFEPRAPWMEQEGPEYWEEQTQRAKSDEQWFRVSLRTAQRYYNQSKGGSHTFQRMFGCDVGSDWRLLRGYQQFAYDGRDYIALNEDLKTWTAADTAALITRRKWEQAGDAEYYRAYLEGECVEWLRRYLELGNETLLRTDSPKAHVTYHPRSQVDVTLRCWALGFYPADITLTWQLNGEDLTQDMELVETRPAGDGTFQKWAAVVVPLGKEQNYTCHVHHKGLPEPLTLRWKLPPSTVSNT
b2m: IQKTPQIQVYSRHPPENGKPNILNCYVTQFHPPHIEIQMLKNGKKIPKVEMSDMSFSKDWSFYILAHTEFTPTETDTYACRVKHASMAEPKTVYWDRDM
peptide: GYKDGNEYI
modifications: left off: a dimerising Fc or GST; small tags and cut ends
notes: monomeric LLO91-99/H2-K^d/β2m-HSV-tag reagent
In the case of B1, the “MHC monomers on the cell surface” value (after brief washing, 4° C.) is reported as “all reagent-derived MHC monomers disappear from the cell surface” and the “interaction of MHC monomers with T cell surface” value (fixed immediately with paraformaldehyde, no washing) is reported as “some detectable interaction”.
